B1: VHH 00903 (VHH, not shown: small tags and cut ends)
VHH: EVQLVESGGGLVQPGGSLRLSCAASGFTLDDYAIGWFRQAPGKEREGVSSIRDNGGSTYYADSVKGRFTISSDNSKNTVYLQMNSLRPEDTAVYYCAAVPAGRLRFGEQWYPIYEYDAWGQGTLVTVSS
B2: VHH 00909 (VHH, not shown: small tags and cut ends)
VHH: EVQLVESGGGLVQPGGSLRLSCAASGITIDDYAIGWFRQAPGKEREGVSSIRDNGGSTYYADSVKGRFTISSDNSKNTVYLQMNSLRPEDTAVYYCAAVPAGRLRFGEQWYPIYEYDAWGQGTLVTVSS
B3: VHH 00910 (VHH, not shown: small tags and cut ends)
VHH: EVQLVESGGGLVQPGGSLRLSCAASGITIDDYAIGWFRQAPGKEREGVSSIRDNGGSTYYADSVKGRFTISSDNSKNTVYLQMNSLRPEDTAVYYCAAVPAGRLRYGEQWYPIYEYDAWGQGTLVTVSS
B4: VHH 00907 (VHH, not shown: small tags and cut ends)
VHH: EVQLVESGGGLVQPGGSLRLSCAASGITLDDYAIGWFRQAPGKEREGVSSIRDNGGSTYYADSVKGRFTISSDNSKNTVYLQMNSLRPEDTAVYYCAAVPAGRLRFGEQWYPIYEYDAWGQGTLVTVSS
B5: VHH 00913 (VHH, not shown: small tags and cut ends)
VHH: EVQLVESGGGLVQPGGSLRLSCAASGLTIDDYAIGWFRQAPGKEREGVSSIRDNGGSTYYADSVKGRFTISSDNSKNTVYLQMNSLRPEDTAVYYCAAVPAGRLRFGEQWYPIYEYDAWGQGTLVTVSS
B6: VHH 00912 (VHH, not shown: small tags and cut ends)
VHH: EVQLVESGGGLVQPGGSLRLSCAASGLTLDDYAIGWFRQAPGKEREGVSSIRDNGGSTYYADSVKGRFTISSDNSKNTVYLQMNSLRPEDTAVYYCAAVPAGRLRYGEQWYPIYEYDAWGQGTLVTVSS
B7: VHH 00906 (VHH, not shown: small tags and cut ends)
VHH: EVQLVESGGGLVQPGGSLRLSCAASGFTIDDYAIGWFRQAPGKEREGVSSIRDNGGSTYYADSVKGRFTISSDNSKNTVYLQMNSLRPEDTAVYYCAAVPAGRLRYGEQWYPIYEYDAWGQGTLVTVSS
B8: VHH 00911 (VHH, not shown: small tags and cut ends)
VHH: EVQLVESGGGLVQPGGSLRLSCAASGLTLDDYAIGWFRQAPGKEREGVSSIRDNGGSTYYADSVKGRFTISSDNSKNTVYLQMNSLRPEDTAVYYCAAVPAGRLRFGEQWYPIYEYDAWGQGTLVTVSS
B9: VHH 00904 (VHH, not shown: small tags and cut ends)
VHH: EVQLVESGGGLVQPGGSLRLSCAASGFTLDDYAIGWFRQAPGKEREGVSSIRDNGGSTYYADSVKGRFTISSDNSKNTVYLQMNSLRPEDTAVYYCAAVPAGRLRYGEQWYPIYEYDAWGQGTLVTVSS
B10: VHH 00905 (VHH, not shown: small tags and cut ends)
VHH: EVQLVESGGGLVQPGGSLRLSCAASGFTIDDYAIGWFRQAPGKEREGVSSIRDNGGSTYYADSVKGRFTISSDNSKNTVYLQMNSLRPEDTAVYYCAAVPAGRLRFGEQWYPIYEYDAWGQGTLVTVSS
B11: VHH 00914 (VHH, not shown: small tags and cut ends)
VHH: EVQLVESGGGLVQPGGSLRLSCAASGLTIDDYAIGWFRQAPGKEREGVSSIRDNGGSTYYADSVKGRFTISSDNSKNTVYLQMNSLRPEDTAVYYCAAVPAGRLRYGEQWYPIYEYDAWGQGTLVTVSS
B12: VHH 00039 (VHH, not shown: small tags and cut ends)
VHH: EVQLVESGGGLVQPGGSLRLSCAASGFTFDDYALGWFRQAAGKEREGVSCIRCSDGSTYYADSVKGRFTISRDNSKNTVYLQMNSLRPEDTAVYYCAASIVPRSKLEPYEYDAWGQGTLVTVSS
B13: VHH 00050 (VHH, not shown: small tags and cut ends)
VHH: EVQLVESGGGLVQPGGSLRLSCAASGFTFDDYALGWFRQAPGKEREGVSCIRCSDGSTYYADSVKGRFTISSDNSKNTVYLQMNSLRPEDTAVYYCAASIVPRSKLEPYEYDAWGQGTLVTVSS
B14: VHH 00051 (VHH, not shown: small tags and cut ends)
VHH: EVQLVESGGGLVQPGGSLRLSCAASGFTFDDYALGWFRQAAGKEREGVSCIRCSGGSTYYADSVKGRFTISSDNSKNTVYLQMNSLRPEDTAVYYCAASIVPRSKLEPYEYDAWGQGTLVTVSS
B15: VHH 00049 (VHH, not shown: small tags and cut ends)
VHH: EVQLVESGGGLVQPGGSLRLSCAASGFTFDDYALGWFRQAAGKEREGVSCIRCSDGSTYYADSVKGRFTISSDNSKNTVYLQMNSLRPEDTAVYYCAASIVPRSKLEPYEYDAWGQGTLVTVSS
B16: VHH 00925 (VHH, not shown: small tags and cut ends)
VHH: DVQLVESGGGLVQPGGSLRLSCAASGFTFDDYALGWFRQAPGKEREGVSCIRCSGGSTYYADSVKGRFTISSDNSKNTVYLQMNSLRPEDTAVYYCAASIVPRSKLEPYEYDAWGQGTLVTVSS
B17: VHH 00921 (VHH, not shown: small tags and cut ends)
VHH: EVQLVESGGGLVQPGGSLRLSCAASGFTFDDYALGWFRQAPGKEREGVSCIRCSGGSTYYADSVKGRFTISSDNSKNTVYLQMNSLRPEDTAVYYCAASIVPRSKLEPYEYDAWGQGTLVTVSS
B18: VHH 00040 (VHH, not shown: small tags and cut ends)
VHH: EVQLVESGGGLVQPGGSLRLSCAASGFTFDDYALGWFRQAPGKEREGVSCIRCSDGSTYYADSVKGRFTISRDNSKNTVYLQMNSLRPEDTAVYYCAASIVPRSKLEPYEYDAWGQGTLVTVSS
B19: VHH 00044 (VHH, not shown: small tags and cut ends)
VHH: EVQLVESGGGLVQPGGSLRLSCAASGFALDYYAIGWFRQAPGKEREGVSCISSSDGITYYVDSVKGRFTISRDNSKNTVYLQMNSLRPEDTAVYYCATDSGGYIDYDCMGLGYDYWGQGTLVTVSS
B20: VHH 00920 (VHH, not shown: small tags and cut ends)
VHH: EVQLVESGGGLVQPGGSLRLSCAASGFALDYYAIGWFRQAPGKEREGVSCISSSGGITYYADSVKGRFTISRDNSKNTVYLQMNSLRPEDTAVYYCATDSGGYIDYDCMGLGYDYWGQGTLVTVSS
B21: VHH 00046 (VHH, not shown: small tags and cut ends)
VHH: EVQLVESGGGLVQPGGSLRLSCAASGFALDYYAIGWFRQAPGKEREGVSCISSSGGITYYVDSVKGRFTISRDNSKNTVYLQMNSLRPEDTAVYYCATDSGGYIDYDCMGLGYDYWGQGTLVTVSS
B22: VHH 00924 (VHH, not shown: small tags and cut ends)
VHH: DVQLVESGGGLVQPGGSLRLSCAASGFALDYYAIGWFRQAPGKEREGVSCISSSGGITYYADSVKGRFTISRDNSKNTVYLQMNSLRPEDTAVYYCATDSGGYIDYDCMGLGYDYWGQGTLVTVSS
B23: VHH 00926 (VHH, not shown: small tags and cut ends)
VHH: EVQLVESGGGLVQPGGSLRLSCAASGFALDYYAIGWFRQAPGKEREGVSCISSSGGITYYADSVKGRFTISRDNSKNTVYLQMNSLRPEDTAVYYCATDSGGYIDYDCQGLGYDYWGQGTLVTVSS
B24: VHH 00045 (VHH, not shown: small tags and cut ends)
VHH: EVQLVESGGGLVQPGGSLRLSCAASGFALDYYAIGWFRQAPGKEREGVSCISSSDGITYYADSVKGRFTISRDNSKNTVYLQMNSLRPEDTAVYYCATDSGGYIDYDCMGLGYDYWGQGTLVTVSS

Biological target: FLAG-tagged human Ang2 (human) (UniProt O15123)
Test: competition ELISA: FLAG-hAng2 binding to coated hTie2-Fc

Chain of FLAG-tagged human Ang2 (human) (O15123 19-496): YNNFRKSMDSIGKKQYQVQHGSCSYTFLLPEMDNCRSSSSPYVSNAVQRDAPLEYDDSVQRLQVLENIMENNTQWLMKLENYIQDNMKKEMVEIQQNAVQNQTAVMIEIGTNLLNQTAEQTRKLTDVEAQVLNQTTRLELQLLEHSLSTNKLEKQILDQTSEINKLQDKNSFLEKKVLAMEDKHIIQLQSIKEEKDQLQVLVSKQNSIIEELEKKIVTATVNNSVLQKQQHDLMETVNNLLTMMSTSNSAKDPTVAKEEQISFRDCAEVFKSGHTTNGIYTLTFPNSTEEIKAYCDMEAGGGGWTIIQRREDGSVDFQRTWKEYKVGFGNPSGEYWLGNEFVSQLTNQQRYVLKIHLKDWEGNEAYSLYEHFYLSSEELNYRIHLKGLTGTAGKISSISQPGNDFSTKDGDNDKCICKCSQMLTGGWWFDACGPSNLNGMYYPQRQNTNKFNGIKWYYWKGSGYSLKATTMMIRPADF

Row | Binder | IC50 [nM]
1 | B1 | 0.089
2 | B2 | 0.053
3 | B3 | 0.042
4 | B4 | 0.062
5 | B5 | 0.042
6 | B6 | 0.062
7 | B7 | 0.045
8 | B8 | 0.059
9 | B9 | 0.062
10 | B10 | 0.079
11 | B11 | 0.037
12 | B12 | 11.9
13 | B13 | 6
14 | B14 | 16.1
15 | B15 | 6.9
16 | B16 | 22.1
17 | B17 | 30.4
18 | B18 | 6.4
19 | B19 | 0.069
20 | B20 | 0.13
21 | B21 | 0.095
22 | B22 | 0.11
23 | B23 | 0.25
24 | B24 | 0.12
